These results are taken from article PMC3665746.

This test concerns the target palm-Mover-flag (not stated | rat). Briefly: plasma membrane recruitment assay in cells (immunofluorescence, line scans); Vero cells co-transfected with palm-Mover-flag and a myc- or GFP-tagged Mover construct; fixed after 24 h, stained against the tags; a cell is positive for recruitment when the fluorescence profiles co-peak in the cell periphery.

Take GFP-Mover 34–266 (domain or fragment): the percent of cells showing recruitment (percent of cells) came out at 71.

The substance GFP-Mover 52–266 (domain or fragment) yielded a percent of cells showing recruitment (percent of cells) of 86.

In turn, GFP-Mover (natural protein) came in with a percent of cells showing recruitment (percent of cells) of 94.

Mover-GFP (natural protein) displayed a percent of cells showing recruitment (percent of cells) of 61.

Turning to Mover-myc (natural protein), the percent of cells showing recruitment (percent of cells) is 94.
